Experiment [1] addresses T1, Recombinant Human DLL4 (human, UniProt Q9NR61 27-524).
T1 construct: Bought recombinant human DLL4 (R&D Systems 1506-D4/CF); also called delta-like protein 4; rHuman DLL4
Description: ELISA on plate-coated DLL4, Fab at 20 nM (3-fold serial dilution). Background: ELISA stands for enzyme-linked immunosorbent assay.

For experiment [2], the target named is T1, Recombinant Human DLL4. Description: ELISA on plate-coated DLL4, Fab at 0.74 nM (3-fold serial dilution).
In experiment [3] the target is T1, Recombinant Human DLL4. The experiment can be described thus: ELISA on plate-coated DLL4, Fab at 2.22 nM (3-fold serial dilution).
For experiment [4], the target named is T1, Recombinant Human DLL4. The experiment can be described thus: ELISA on plate-coated DLL4, Fab at 6.67 nM (3-fold serial dilution).
Experiment [5] has as its target T1, Recombinant Human DLL4. The experiment can be described thus: ECL (MSD) binding assay, Fab on immobilised recombinant human DLL4; Fab concentration not given in the table.
Experiment [6] addresses T2, Recombinant Human DLL4 (human, UniProt Q9NR61 27-524).
T2 construct: Bought recombinant human DLL4 (R&D Systems Cat#1506-D4/CF), coated on the plate; also called delta-like protein 4; rHuman DLL4
Description: ECL (MSD) 96-well plate assay, DLL4 coated at 30 ug/mL, Fab 0.1 uM; signal over blank.

Experiment [7] has as its target T2, Recombinant Human DLL4. The experiment can be described thus: ECL (MSD) 96-well plate assay, DLL4 coated at 15 ug/mL, Fab 0.02 uM; signal over blank.

Data on seven molecules can be found in patent publication US20120316071A1 (published 2012).

B1: Fab VH1-46_IGHD6-6*01_IGHJ1*01 S102A/S103P/S104F/H111F I51V/N52L/S54T/G56H & L6_IGKJ1*01 S28N/S30D/S31H (Fab, V domains shown)
VH: QVQLVQSGAEVKKPGASVKVSCKASGYTFTSYYMHWVRQAPGQGLEWMGIVLPTGHSTSYAQKFQGRVTMTRDTSTSTVYMELSSLRSEDTAVYYCAREEYAPFSAEYFQFWGQGTLVTVSS
VL: EIVLTQSPATLSLSPGERATLSCRASQNVDHYLAWYQQKPGQAPRLLIYDASNRATGIPARFSGSGSGTDFTLTISSLEPEDFAVYYCQQRSNWPPWTFGQGTKVEIKR
notes: Fab expressed in E. coli: VH joined to CH1 from Plasmid A (His6 and Flag tags), VL joined to kappa CL from Plasmid C; also called H:APFF VLTH & L:NDH
For the molecule B1, the ELISA signal in experiment [1] came out at 0.979; in experiment [2] it was 0.288; in experiment [3], 0.608; in experiment [4], 0.776. Further, the “ECL signal” value in experiment [5] came to 9790.

B2: Fab VH1-46_IGHD6-6*01_IGHJ1*01 S102A/S103P/S104F/H111F N52L/S54T/G56H & L6_IGKJ1*01 S28N/S30D/S31H (Fab, V domains shown)
VH: QVQLVQSGAEVKKPGASVKVSCKASGYTFTSYYMHWVRQAPGQGLEWMGIILPTGHSTSYAQKFQGRVTMTRDTSTSTVYMELSSLRSEDTAVYYCAREEYAPFSAEYFQFWGQGTLVTVSS
VL: EIVLTQSPATLSLSPGERATLSCRASQNVDHYLAWYQQKPGQAPRLLIYDASNRATGIPARFSGSGSGTDFTLTISSLEPEDFAVYYCQQRSNWPPWTFGQGTKVEIKR
notes: Fab expressed in E. coli: VH joined to CH1 from Plasmid A (His6 and Flag tags), VL joined to kappa CL from Plasmid C; also called H:APFF LTH & L:NDH
As to B2, the ELISA signal in experiment [1] was 0.863; in experiment [2], 0.27; in experiment [3], 0.463; in experiment [4], 0.739. Besides, the “ECL signal” value in experiment [5] stood at 6020.

B3: Fab VH1-46_IGHD6-6*01_IGHJ1*01 S102A/S103P/S104F/H111F N52L/S54T/G56H & L6_IGKJ1*01 S28N/S30D/S31H S52L/A55S (Fab, V domains shown)
VH: QVQLVQSGAEVKKPGASVKVSCKASGYTFTSYYMHWVRQAPGQGLEWMGIILPTGHSTSYAQKFQGRVTMTRDTSTSTVYMELSSLRSEDTAVYYCAREEYAPFSAEYFQFWGQGTLVTVSS
VL: EIVLTQSPATLSLSPGERATLSCRASQNVDHYLAWYQQKPGQAPRLLIYDALNRSTGIPARFSGSGSGTDFTLTISSLEPEDFAVYYCQQRSNWPPWTFGQGTKVEIKR
notes: Fab expressed in E. coli: VH joined to CH1 from Plasmid A (His6 and Flag tags), VL joined to kappa CL from Plasmid C; also called H:APFF LTH & L:NDH LS
For B3, the ELISA signal in experiment [1] turned out to be 1.05; in experiment [2] it was 0.398; in experiment [3], 0.557; in experiment [4] it was 0.916. For the same molecule, in experiment [5], the “ECL signal” value was 11500.

B4: Fab VH1-46_IGHD6-6*01_IGHJ1*01 S102A/S103P/S104F/H111F I51V/N52L/S54T/G56H & L6_IGKJ1*01 S28N/S30D/S31H S52L/A55S (Fab, V domains shown)
VH: QVQLVQSGAEVKKPGASVKVSCKASGYTFTSYYMHWVRQAPGQGLEWMGIVLPTGHSTSYAQKFQGRVTMTRDTSTSTVYMELSSLRSEDTAVYYCAREEYAPFSAEYFQFWGQGTLVTVSS
VL: EIVLTQSPATLSLSPGERATLSCRASQNVDHYLAWYQQKPGQAPRLLIYDALNRSTGIPARFSGSGSGTDFTLTISSLEPEDFAVYYCQQRSNWPPWTFGQGTKVEIKR
notes: Fab expressed in E. coli: VH joined to CH1 from Plasmid A (His6 and Flag tags), VL joined to kappa CL from Plasmid C; also called H:APFF VLTH & L:NDH LS
Turning to B4, the ELISA signal in experiment [1] came to 0.91; in experiment [2], 0.263; in experiment [3], 0.523; in experiment [4], 0.747. For the same molecule, the “ECL signal” value in experiment [5] stood at 8000.

B5: Fab VH1-46_IGHD6-6*01_IGHJ1*01 S102A/S103P/S104F/H111F I51V/N52L/S54T/G56H & L6_IGKJ1*01 S28N/S30D/S31H S52L/A55G (Fab, V domains shown)
VH: QVQLVQSGAEVKKPGASVKVSCKASGYTFTSYYMHWVRQAPGQGLEWMGIVLPTGHSTSYAQKFQGRVTMTRDTSTSTVYMELSSLRSEDTAVYYCAREEYAPFSAEYFQFWGQGTLVTVSS
VL: EIVLTQSPATLSLSPGERATLSCRASQNVDHYLAWYQQKPGQAPRLLIYDALNRGTGIPARFSGSGSGTDFTLTISSLEPEDFAVYYCQQRSNWPPWTFGQGTKVEIKR
notes: Fab expressed in E. coli: VH joined to CH1 from Plasmid A (His6 and Flag tags), VL joined to kappa CL from Plasmid C; also called H:APFF VLTH & L:NDH LG
In the case of B5, the ELISA signal in experiment [1] amounted to 1.06; in experiment [2] it was 0.397; in experiment [3], 0.755; in experiment [4], 0.916. The “ECL signal” value in experiment [5] came to 12200.

B6: Fab VH5-51_IGHD5-18*01>3_IGHJ4*01 G100D & V3-4_IGLJ1*01 (Fab, V domains shown)
VH: EVQLVQSGAEVKKPGESLKISCKGSGYSFTSYWIGWVRQMPGKGLEWMGIIYPGDSDTRYSPSFQGQVTISADKSISTAYLQWSSLKASDTAMYYCARRDYSYGYDYFDYWGQGTLVTVSS
VL: QTVVTQEPSFSVSPGGTVTLTCGLSSGSVSTSYYPSWYQQTPGQAPRTLIYSTNTRSSGVPDRFSGSILGNKAALTITGAQADDESDYYCVLYMGSGISYVFGTGTKVTVL
notes: Fab; VH-CH1 (His6/Flag, Plasmid A) and VL-lambda CL (Plasmid E)
On to B6, for which the Signal/Noise came to 5.8 in experiment [6] and 2 in experiment [7].

B7: Fab VH5-51_IGHD5-18*01>3_IGHJ4*01 G104K & V3-4_IGLJ1*01 (Fab, V domains shown)
VH: EVQLVQSGAEVKKPGESLKISCKGSGYSFTSYWIGWVRQMPGKGLEWMGIIYPGDSDTRYSPSFQGQVTISADKSISTAYLQWSSLKASDTAMYYCARRGYSYKYDYFDYWGQGTLVTVSS
VL: QTVVTQEPSFSVSPGGTVTLTCGLSSGSVSTSYYPSWYQQTPGQAPRTLIYSTNTRSSGVPDRFSGSILGNKAALTITGAQADDESDYYCVLYMGSGISYVFGTGTKVTVL
notes: as for B6
B7: the values for the Signal/Noise in experiment [6] and in experiment [7] were 17.6 and 9.1, respectively.
